For this assay, the target named is GpA G83I. The assay is described as follows: TOXCAT. The note with it: parent: est. 100; read off a plot.

Consider one substance from PMC4106346, “The Oligomeric States of the Purified Sigma-1 Receptor Are Stabilized by Ligands” (The Journal of Biological Chemistry, 2014).

In the case of “glycophorin A transmembrane control of the TOXCAT assay G83I”, the response was 6.3 %GpA.
